Assay results taken from a protein production outcome set (Wang et al. 2014).

Experiment: label from the status in PepcDB records
For “MESTLSASNMQDPSSSPLEKCLGSANGNGDLDSEEGSSLEETGFNWGEYLEETGASAAPHTSFKHVEISIQSNFQPGMKLEVANKNNPDTYWVATIITTCGQLLLLRYCGYGEDRRADFWCDVVIADLHPVGWCTQNNKVLMPPDAIKEKYTDWTEFLIRDLTGSRTAPANLLEGPLRGKGPIDLITVGSLIELQDSQNPFQYWIVSVIENVGGRLRLRYVGLEDTESYDQWLFYLDYRLRPVGWCQENKYRMDPPSEIYPLKMASEWKCTLEKSLIDAAKFPLPMEVFKDHADLRSHFFTVGMKLETVNMCEPFYISPASVTKVFNNHFFQVTIDDLRPEPSKLSMLCHADSLGILPVQWCLKNGVSLTPPKGYSGQDFDWADYHKQHGAQEAPPFCFRNTSFSRGFTKNMKLEAVNPRNPGELCVASVVSVKGRLMWLHLEGLQTPVPEVIVDVESMDIFPVGWCEANSYPLTAPHKTVSQKKRKIAVVQPEKQLPPTVPVKKIPHDLCLFPHLDTTGTVNGKYCCPQLFINHRCFSGPYLNKGRIAELPQSVGPGKCVLVLKEVLSMIINAAYKPGRVLRELQLVEDPHWNFQEETLKAKYRGKTYRAVVKIVRTSDQVANFCRRVCAKLECCPNLFSPVLISENCPENCSIHTKTKYTYYYGKRKKISKPPIGESNPDSGHPKPARRRKRRKSIFVQKKRRSSAVDFTAGSGEESEEEDADAMDDDTASEETGSELRDDQTDTSSAEVPSARPRRAVTLRSGSEPVRRPPPERTRRGRGAPAASSAEEGEKCPPTKPEGTEDTKQEEEERLVLESNPLEWTVTDVVRFIKLTDCAPLAKIFQEQDIDGQALLLLTLPTVQECMELKLGPAIKLCHQIERVKVAFYAQYAN”, the protein production was “failed”. With “MESWKVNLISVWFGCFFTGLAISQILPFLPLYVSQLGVTSHEALSMWSGLTFSVTFLVSAIVSPMWGSLADRKGRKLMLLRASLGMAIAILLQAFATNVWQLFILRAIMGLTSGYIPNAMALVASQVPRERSGWALSTLSTAQISGVIGGPLLGGFLADHVGLRMVFFITAILLTISFLVTLFLIKEGVRPQVSKSERLTGKQVFASLPYPGLVISLFFTTLVIQLCNGSIGPILALFIKSMAPDSNNIAFLAGMIAAVPGVSALISAPRLGKLGDRIGTSRILLATLCCAVVMFFAMSFVTTPLQLGTLRFLLGFADGAMLPAVQTLLLKYSSDSVTGRIFGYNQSFMYLGNVAGPLIGASVSAMAGFRWVFIATAIIVFINLWQLAWMLRQTRRANA” the protein production was “not failed”. In the case of “METESEQNSNSTNGSSSSGGSSRPQIAQMSLYERQAVQALQALQRQPNAAQYFHQFMLQQQLSNAQLHSLAAVQQATIAASRQASSPNTSTTQQQTTTTQASINLATTSAAQLISRSQSVSSPSATTLTQSVLLGNTTSPPLNQSQAQMYLRPQLGNLLQVNRTLGRNVPLASQLILMPNGAVAAVQQEVPSAQSPGVHADADQVQNLAVRNQQASAQGPQMQGSTQKAIPPGASPVSSLSQASSQALAVAQASSGATNQSLNLSQAGGGSGNSIPGSMGPGGGGQAHGGLGQLPSSGMGGGSCPRKGTGVVQPLPAAQTVTVSQGSQTEAESAAAKKAEADGSGQQNVGMNLTRTATPAPSQTLISSATYTQIQPHSLIQQQQQIHLQQKQVVIQQQIAIHHQQQFQHRQSQLLHTATHLQLAQQQQQQQQQQQQQQQPQATTLTAPQPPQVPPTQQVPPSQSQQQAQTLVVQPMLQSSPLSLPPDAAPKPPIPIQSKPPVAPIKPPQLGAAKMSAAQQPPPHIPVQVVGTRQPGTAQAQALGLAQLAAAVPTSRGMPGTVQSGQAHLASSPPSSQAPGALQECPPTLAPGMTLAPVQGTAHVVKGGATTSSPVVAQVPAAFYMQSVHLPGKPQTLAVKRKADSEEERDDVSTLGSMLPAKASPVAESPKVMDEKSSLGEKAESVANVNANTPSSELVALTPAPSVPPPTLAMVSRQMGDSKPPQAIVKPQILTHIIEGFVIQEGAEPFPVGCSQLLKESEKPLQTGLPTGLTENQSGGPLGVDSPSAELDKKANLLKCEYCGKYAPAEQFRGSKRFCSMTCAKRYNVSCSHQFRLKRKKMKEFQEANYARVRRRGPRRSSSDIARAKIQGKCHRGQEDSSRGSDNSSYDEALSPTSPGPLSVRAGHGERDLGNPNTAPPTPELHGINPVFLSSNPSRWSVEEVYEFIASLQGCQEIAEEFRSQEIDGQALLLLKEEHLMSAMNIKLGPALKICAKINVLKET”, the protein production is reported as “failed”. With “METISKEFKSKVSLFWEAFNKNDFESAKTQCNQMKKSFSDEANPHYLLGIIYFEEKRFDKSIIELKLALKKDSERKLGGYIYYVIGLNYSKNTFSNMENLNSIYDIELARNAFESALTYENFNESNITELSQIYRNKFKLIQLFQKGLKKFPTKTSFYIKLSAIYKKNGNISERESLLLDAKENIKSFHILFELGELYLEKSQYKCSREHFYLAEKLREGSGLEFAVQVMIGNTHVNEGNPNLANEYYINAFHKEKNSCNFWFGLFGILASSAETSFADLKNILEEMEVTSQLTIEEWYGEMPLYYGSNYFSFDFPIDEKHLINRLNLFKKQQRDTDILGKIELIKASLYEFSSEDTKYIKCLKSAINYFSQHSYDFIFNKLAARYDYLLSHLQEEGKSVNTLINEIVDYLEDDYSFRKEYIEYLPTIVTILFEEKKHKKIIEIKNIFTEKQIDKADIWFHVGYAFNELGRPKESKYAYECNIKINGECTSTHNNLALLLENEGKNSDAVAMFQKALMINVDDEKLQSNLQNALDKQKAKSLLTYKNEAIDKSFVGAVGLLKSETFFSMETLLNFIDRSKKENSFNDGILSIQDEMFPDLLRTNLVKSLELKNDWLIKNYIALTEEIDEYGIPYYQVNPYLEPEIVKLKRMTVESELPKEWTEGIGNITIFKLDELDYFSIKHKISKINKKFKPLVMRDFNELIFNHLVGNRKAVVVLSGSFVELLLTYYCEKKRIKAVEYTCKDSAKPKKKKLYDCVLFDLISFIEEKRIFGNDFFLLSNLSRVYRNFIHPGVELKNSLDKSKSDLCFISSLEILKKII” the protein production was “failed”. With “METLHPFSHLPISDHRFVVQEMVSLHSSSSGSWTKEENKMFERALAIYAEDSPDRWFKVASMIPGKTVFDVMKQYSKLEEDVFDIEAGRVPIPGYPAASSPLGFDTDMCRKRPSGARGSDQDRKKGVPWTEEEHRRFLLGLLKYGKGDWRNISRNFVVSKTPTQVASHAQKYYQRQLSGAKDKRRPSIHDITTGNLLNANLNRSFSDHRDILPDLGFIDKDDTEEGVIFMGQNLSSENLFSPSPTSFEAAINFAGENVFSAGA” the protein production was “failed”. For “METLKKNWTKFILSFIMLVLAIICVYTLSTYKSSEKNTGFLKMGGGFNKSFNSSSRKLNGQPNMKGAPAQHPSNSNANSKSAPPNNFNHNVSKPQRMMGGGEFNSSSKYSSEVLIYSLGFFAIVICAYLAIVKKKIKISTENRGFILAAFLVIGFLFRIIVGLLITGYVTDIGLYKQWALTAAKNLAAVYTNGSVDYPPVYLYVLSIIGKIASSSFMSNYSTLLIKLPSIIADIFSAYFVYRLSIKRFSYETSFALTLFYLFNPAILINSTLWGQADSFFTLLVILAVYFISEDKIVPSSIFFALSVLMKPQGIIFLPLVLFWYIKNKNLKSIFKSIASGFITTIIVLAPFSISKGNITWIFDLYTREVSEYPYASNNAFNFYSLIGANRVKDSNTMFIFSYHTWGMLFIVLITLISGFFYLKSKNKYASTLAALIQVVGVFNFSVGMHERYMFTAVLASILAYIYFKDKRLLLISLLLSFINYANMHTILFNRLNMNVNSSSSMLIVFISLLNITTFVYLIKVCFDLCLKKDIKVTEDIQNTL”, the protein production was “failed”. In the case of “METLSNSILTVQIAEHGAELQSIKKDGKEYLWQGDAKFWGRRSPVLFPIVGRVWNNKYRHAGNTYEIGQHGFARDMDFKLTYKEDKGAVYWLESTPDTLGKFPFPFRLLVGYLLEENKITVKWRVENLGAMDMYFQIGAHPAFYFPEFDAATKDRGFFVFDRKSDLEYIMPTEKGCVSPERHVLKLNKEGLMPIDIHTFDCDTYIFDNKQLKKITLLDKKKKPHISLEFNSPLVALWSPTKTHPDCPFVCIEPWYGRCDSVGYSGELKDREWIQKLEPKETFDVEYKIIIE”, the protein production is reported as “failed”. For “METLSVIHTVANRLRELNPDMDIHISSTDAKVYIPTGQQVTVLIHYCGSVFAEPENTDATVQKQLIRISATVIVPQISDAINALDRLRRSLGGIELPDCDRPLWLESEKYIGDAANFCRYALDMTASTLFIAEQESKDSPLLTIVNYEEIQ”, the protein production was “not failed”. In the case of “METMFDTLLQLPLFQGLCHEDFTSILDKVKLHFIKHKAGETIIKSGNPCTQLCFLLKGEISIVTNAKENIYTVIEQIEAPYLIEPQSLFGMNTNYASSYVAHTEVHTVCISKAFVLSDLFRYDIFRLNYMNIVSNRAQNLYSRLWDEPTLDLKSKIIRFFLSHCEKPQGEKTFKVKMDDLARCLDDTRLNISKTLNELQDNGLIELHRKEILIPDAQKLL”, the protein production is reported as “not failed”. In the case of “METTPVTSCTIIDATDRSIRQTLGETSTLARLIWVDAGLASPPLCSGLARCGRCRVRITEAAPAPHEDDREFFSAEDISAGWRLACRHAPAHGMVVHVPLPVMPHRHASRPKHPGPFRLAVDLGTTSLQWSLLAPDGTVAAQGSETNPQMGAGSDVMSRIAMARSDKGRGRLRELVLQALRRIVADVEGTPATADAVPPAGSGDEPTTACGYESRVEELCVAGNTAMTAILADESVEGLASAPYRLEMRGGTALALPGLPPAWIPPLPAPFVGGDLSAGYLAVLTDHAPAFPFVLADLGTNGEFVLALSPERTLVTSVALGPALEGIGLTFGTVAQRGAITSFTLTPGGLVPYVLDGGEADGISGTGYISLVHALLRAGLLDVDGRFIQSPSSPLAARMARSIVSHRGEPCLPLARGLYLAARDIEEILKVKAAFSLAFERLLATAQMPSHALSGIHLAGALGQHALPADLEGLGFIPPGSGGRTRAVGNTSLRGAELLLTSPPLRDTLNTWREGCTVVDLTAAPDFSAAFLRHMHFHFLEHHHHHH”, the protein production is reported as “failed”. For “METTQKDELSSFLSVLPPVDFCCVYGSTLHPNNQDKSKMVDYILGVSDPIKWHSANLKMNSDHYASWMVHLGGARLITNVADKVGVGVHFNPFVNWNDRKLKYGVVRMHDLVQDILDWKRFYLSGRLQKPVHMLVDNLDIEDVNSVNKRAAISAALLLLPSKFTEEDLYAKICSLSYMGDLRMFFAEDTNKVNKIVKGQFDLFQSMYKPFLEECETKNLLRFSSAEASHTKLVQDSSLSATRSLVSSLPASVRSQMGKSLGEKKFVSETGRVMGEVCISSREEAAKCMEKVMRRRVMVSSGRQAVSGFLAAGAINATMYLSQKMRKAWNSRA”, the protein production was “failed”. With “METYDVLVVGGGPGGSTAARYAAKYGLKTLMIEKRPEIGSPVRCGEGLSKGILNEADIKADRSFIANEVKGARIYGPSEKRPIILQSEKAGNEVGYVLERDKFDKHLAALAAKAGADVWVKSPALGVIKENGKVAGAKIRHNNEIVDVRAKMVIAADGFESEFGRWAGLKSVILARNDIISALQYRMINVDVDPDYTDFYLGSIAPAGYIWVFPKGEGMANVGIGSSINWIHNRFELKNYLDRFIENHPGLKKGQDIQLVTGGVSVSKVKMPITMPGLMLVGDAARLIDPITGGGIANAIVSGMYAAQVTKEAIESNDYSPQMMQKYEKLIKERFERKHLRNWVAKEKLAMLSDDTLDKLVDIVSEQVLTTISVEAILKAIAEKYPEVVKELEDLI” the protein production was “not failed”. In the case of “METYPITVGGVTRHVPLIEPLPGRRIPLVEFLGDPEFTRAAAEALRPLVPKEAEILFTTETSPIPLTHVLAEALGLPYVVARRRRRPYMEDPIIQEVQTLTLGVGEVLWLDRRFAEKLLNQRVVLVSDVVASGETMRAMEKMVLRAGGHVVARLAVFRQGTPGLAVDTVAELPVL”, the protein production is reported as “not failed”. For “MEVARGLEGVLFTESRMCYIDGQQGKLYYYGIPIQELAEKSSFEETTFLLLHGRLPRRQELEEFSAALARRRALPAHLLESFKRYPVSAHPMSFLRTAVSEFGMLDPTEGDISREALYEKGLDLIAKFATIVAANKRLKEGKEPIPPREDLSHAANFLYMANGVEPSPEQARLMDAALILHAEHGFNASTFTAIAAFSTETDLYSAITAAVASLKGPRHGGANEAVMRMIQEIGTPERAREWVREKLAKKERIMGMGHRVYKAFDPRAGVLEKLARLVAEKHGHSKEYQILKIVEEEAGKVLNPRGIYPNVDFYSGVVYSDLGFSLEFFTPIFAVARISGWVGHILEYQELDNRLLRPGAKYVGELDVPYVPLEARE”, the protein production was “not failed”.
